Laboratory results as given in patent US20190322728A1 (PROTHENA BIOSCIENCES, published 2019).

T1: tau peptide, residues 25-44 of SEQ ID NO: 1 (human)
T1 construct: Proteolytic fragment (LysC and trypsin digests) of rTau, precipitated by 16B5 and identified by MALDI-TOF/TOF
T1 peptide: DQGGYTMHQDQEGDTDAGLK

T2: tau peptide, residues 24-44 of SEQ ID NO: 1 (human)
T2 construct: Tryptic fragment of rTau, precipitated by 16B5 and identified by MALDI-TOF/TOF
T2 peptide: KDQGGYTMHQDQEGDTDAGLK


Columns and labels:
[1] = target: recombinant purified hTau-P301L (human) (UniProt P10636); test: SPR (Biacore T200), antibody held by a capture antibody on a CM5 chip, hTau-P301L as analyte
Chain of recombinant purified hTau-P301L (human) (P10636 other isoform, or with tags, fused parts or gaps P301L P301L): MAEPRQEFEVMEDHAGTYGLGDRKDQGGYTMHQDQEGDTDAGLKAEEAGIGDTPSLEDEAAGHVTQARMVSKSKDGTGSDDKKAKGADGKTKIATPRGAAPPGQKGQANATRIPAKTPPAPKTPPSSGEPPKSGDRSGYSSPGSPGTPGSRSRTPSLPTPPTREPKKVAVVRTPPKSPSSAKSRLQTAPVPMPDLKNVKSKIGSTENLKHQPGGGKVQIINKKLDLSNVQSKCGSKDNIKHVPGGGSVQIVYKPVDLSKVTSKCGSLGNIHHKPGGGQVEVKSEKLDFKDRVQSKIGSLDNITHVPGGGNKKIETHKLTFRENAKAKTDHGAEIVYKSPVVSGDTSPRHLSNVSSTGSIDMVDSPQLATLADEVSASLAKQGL

[2] = target: T3, tau deletion mutant Δ25-44 (printed A25-44) (human, UniProt P10636 1-758); test: Western blot of bacterial lysate
T3 construct: Deletion mutant of rTau, tested in clarified bacterial lysate; The limits of the pieces are derived from the printed deletion
T3 sequence (P10636 other isoform, or with tags, fused parts or gaps mutant): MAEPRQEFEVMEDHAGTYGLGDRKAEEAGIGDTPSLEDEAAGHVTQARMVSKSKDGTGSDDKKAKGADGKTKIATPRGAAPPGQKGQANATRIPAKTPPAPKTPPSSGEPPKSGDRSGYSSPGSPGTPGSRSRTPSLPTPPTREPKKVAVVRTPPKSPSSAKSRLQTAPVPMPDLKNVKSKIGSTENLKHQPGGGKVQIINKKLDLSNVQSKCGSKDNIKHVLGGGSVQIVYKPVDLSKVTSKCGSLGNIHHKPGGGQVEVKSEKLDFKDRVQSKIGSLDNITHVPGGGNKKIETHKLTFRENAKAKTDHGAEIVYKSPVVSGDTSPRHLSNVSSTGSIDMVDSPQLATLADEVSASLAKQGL

[3] = target: T4, tau deletion mutant Δ30-39 (printed A30-39) (human, UniProt P10636 1-758); test: Western blot of bacterial lysate
T4 construct: Deletion mutant of rTau, tested in clarified bacterial lysate; The limits of the pieces are derived from the printed deletion
T4 sequence (P10636 other isoform, or with tags, fused parts or gaps mutant): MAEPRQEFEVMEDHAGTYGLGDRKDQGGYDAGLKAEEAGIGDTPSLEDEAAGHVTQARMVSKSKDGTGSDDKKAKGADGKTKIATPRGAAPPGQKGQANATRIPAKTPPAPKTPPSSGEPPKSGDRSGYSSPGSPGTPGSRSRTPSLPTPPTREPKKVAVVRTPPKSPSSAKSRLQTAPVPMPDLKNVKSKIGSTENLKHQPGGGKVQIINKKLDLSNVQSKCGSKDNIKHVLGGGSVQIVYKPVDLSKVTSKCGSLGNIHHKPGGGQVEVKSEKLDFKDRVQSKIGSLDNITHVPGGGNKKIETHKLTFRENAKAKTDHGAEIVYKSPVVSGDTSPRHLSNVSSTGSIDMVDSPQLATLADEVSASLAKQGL

[4] = target: T5, tau deletion mutant Δ23-32 (printed A23-32) (human, UniProt P10636 1-758); test: Western blot of bacterial lysate, antibody at 0.2 µg/mL
T5 construct: Deletion mutant of rTau, tested in clarified bacterial lysate; The limits of the pieces are derived from the printed deletion
T5 sequence (P10636 other isoform, or with tags, fused parts or gaps mutant): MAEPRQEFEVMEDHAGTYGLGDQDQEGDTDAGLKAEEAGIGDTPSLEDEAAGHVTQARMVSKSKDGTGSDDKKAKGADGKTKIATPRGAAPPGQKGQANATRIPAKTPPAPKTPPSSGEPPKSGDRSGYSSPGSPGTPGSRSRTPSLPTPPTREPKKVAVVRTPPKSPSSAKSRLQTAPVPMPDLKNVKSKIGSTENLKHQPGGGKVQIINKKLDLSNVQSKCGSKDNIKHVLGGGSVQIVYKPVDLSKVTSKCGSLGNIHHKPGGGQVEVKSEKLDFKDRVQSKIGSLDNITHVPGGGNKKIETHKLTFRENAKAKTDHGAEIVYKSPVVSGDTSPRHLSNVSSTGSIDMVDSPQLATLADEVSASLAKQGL

[5] = target: T6, rTau: human tau with 4 microtubule binding repeats and no N-terminal inserts, containing a P301L mutation (human, UniProt P10636 2-758); test: Western blot of bacterial lysate, 16B5 at 0.2 ug/mL
T6 construct: Expressed in E. coli and purified; It is the parent of the deletion mutants; also called full-length Tau; wild-type Tau (WT) of the blots
T6 sequence (P10636 other isoform, or with tags, fused parts or gaps P301L P301L limits assumed): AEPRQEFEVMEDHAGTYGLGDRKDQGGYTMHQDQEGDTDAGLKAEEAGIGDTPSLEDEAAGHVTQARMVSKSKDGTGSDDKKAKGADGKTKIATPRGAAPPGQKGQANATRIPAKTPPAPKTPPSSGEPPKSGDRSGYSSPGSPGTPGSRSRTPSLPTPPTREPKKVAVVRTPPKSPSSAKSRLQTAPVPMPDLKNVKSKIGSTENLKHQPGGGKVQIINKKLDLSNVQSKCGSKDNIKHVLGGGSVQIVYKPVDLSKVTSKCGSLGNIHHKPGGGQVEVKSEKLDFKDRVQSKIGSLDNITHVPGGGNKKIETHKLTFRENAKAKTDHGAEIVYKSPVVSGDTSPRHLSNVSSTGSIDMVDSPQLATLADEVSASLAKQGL

[6] = target: T7, tau deletion mutant Δ5-24 (printed A5-24) (human, UniProt P10636-6 1-383); test: as above
T7 construct: Deletion mutant of rTau, tested in clarified bacterial lysate; The limits of the pieces are derived from the printed deletion
T7 sequence (P10636 other isoform, or with tags, fused parts or gaps mutant): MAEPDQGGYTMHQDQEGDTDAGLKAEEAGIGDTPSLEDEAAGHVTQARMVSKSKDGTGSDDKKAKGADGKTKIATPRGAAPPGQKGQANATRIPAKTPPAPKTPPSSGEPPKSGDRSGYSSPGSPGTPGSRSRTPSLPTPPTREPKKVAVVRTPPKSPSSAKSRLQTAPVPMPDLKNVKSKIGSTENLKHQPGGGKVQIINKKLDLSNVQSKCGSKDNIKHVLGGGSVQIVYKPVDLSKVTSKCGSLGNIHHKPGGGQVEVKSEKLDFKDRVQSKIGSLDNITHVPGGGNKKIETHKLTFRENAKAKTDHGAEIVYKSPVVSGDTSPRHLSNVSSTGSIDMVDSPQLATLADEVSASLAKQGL

[7] = target: T1, tau peptide, residues 25-44 of SEQ ID …; test: precipitation of protease fragments of rTau with 16B5, HPLC, MALDI-TOF/TOF
[8] = target: T2, tau peptide, residues 24-44 of SEQ ID …; test: as above

Row | Binder | Kd [1] | koff [1] | kon [1] | further results
1 | humanized 16B5, version H1L2 (antibody, V domains shown) VH: QVQLVQSGSELKKPGASVKVSCKASGYPFTYHGMDWVRQAPGQGLEWMGWINTYSGVPTYADDFKGRFVFSLDTSVSTAYLQISSLKAEDTAVYFCARRRDFTMDFWGQGTTVTVSS VL: NIVLTQSPDSLAVSLGERATINCKSSQSLLNSRTRKNYLAWFQQKPGQSPKLLIYWASTRESGVPDRFSGSGSGTDFTLTISSLQAEDVAVYYCKQSYTLRTFGGGTKVEIKR | 2.94 pM | 0.000131 s⁻¹ | 4.47e+07 M⁻¹ s⁻¹ | 
2 | humanized 16B5, version H1L4 (antibody, V domains shown) VH: QVQLVQSGSELKKPGASVKVSCKASGYPFTYHGMDWVRQAPGQGLEWMGWINTYSGVPTYADDFKGRFVFSLDTSVSTAYLQISSLKAEDTAVYFCARRRDFTMDFWGQGTTVTVSS VL: NIVLTQSPSSLAVSLGERATINCKSSQSLLNSRTRKNYLAWFQQKPGQSPKLLIYWASTRESGVPDRFSGSGSGTDFTLTISSLQAEDVAVYYCKQSYTLRTFGGGTKVEIKR | 3.15 pM | 0.000137 s⁻¹ | 4.36e+07 M⁻¹ s⁻¹ | 
3 | humanized 16B5, version H2L2 (antibody, V domains shown) VH: EVQLVQSGSELKKPGASVKVSCKASGYPFTYHGMDWVRQAPGQGLEWMGWINTYSGVPTYADDFKGRFVFSLDTSVSTAYLQISSLKAEDTAVYFCARRRDFTMDFWGQGTTVTVSS VL: NIVLTQSPDSLAVSLGERATINCKSSQSLLNSRTRKNYLAWFQQKPGQSPKLLIYWASTRESGVPDRFSGSGSGTDFTLTISSLQAEDVAVYYCKQSYTLRTFGGGTKVEIKR | 2.86 pM | 0.000138 s⁻¹ | 4.85e+07 M⁻¹ s⁻¹ | 
4 | humanized 16B5, version H2L4 (antibody, V domains shown) VH: EVQLVQSGSELKKPGASVKVSCKASGYPFTYHGMDWVRQAPGQGLEWMGWINTYSGVPTYADDFKGRFVFSLDTSVSTAYLQISSLKAEDTAVYFCARRRDFTMDFWGQGTTVTVSS VL: NIVLTQSPSSLAVSLGERATINCKSSQSLLNSRTRKNYLAWFQQKPGQSPKLLIYWASTRESGVPDRFSGSGSGTDFTLTISSLQAEDVAVYYCKQSYTLRTFGGGTKVEIKR | 3.95 pM | 0.000171 s⁻¹ | 4.34e+07 M⁻¹ s⁻¹ | 
5 | 16B5 monoclonal antibody (mouse) (antibody, V domains shown, Mouse monoclonal antibody; The control 6F10 is called an IgG1 isotype control; also called Murine 16B5; pan antibody 16B5) VH: QIQLVQSGPELKKPGETVKISCKASGYPFTYHGMDWVKQAPWGGLEWMGWINTYSGVPTYADDFKGRFAFSLETSVGTAYLQINNLKNEDTATYFCARRRDFTMDFWGQGTSVTVSS VL: NIVLSQSPSSLAVSPGEKVTMSCKSSQSLLNSRTRKNYLAWFQQKPGQSPKLLIYWASTRESGVPDRFTGSGSGTDFTLTISSVQAEDLAVYYCKQSYTLRTFGGGTNLEIKR | 2.32 pM |  |  | binding result [2]: no binding (tested: 0.2 µg/mL antibody); binding result [3]: no binding (tested: 0.2 µg/mL antibody); binding result [4]: binds; binding result [5]: binds; binding result [6]: binds; binding result [7]: binds; binding result [8]: binds
6 | humanized 16B5, version H1L1 (antibody, V domains shown) VH: QVQLVQSGSELKKPGASVKVSCKASGYPFTYHGMDWVRQAPGQGLEWMGWINTYSGVPTYADDFKGRFVFSLDTSVSTAYLQISSLKAEDTAVYFCARRRDFTMDFWGQGTTVTVSS VL: NIVLTQSPDSLAVSLGERATINCKSSQSLLNSRTRKNYLAWFQQKPGQPPKLLIYWASTRESGVPDRFSGSGSGTDFTLTISSLQAEDVAVYYCKQSYTLRTFGGGTKVEIKR |  |  |  | dissociation constant relative to the chimeric antibody (fold of chimeric 16B5) [1]: 0.33
